Residue numbers refer to the chain shown, from its start.
B1: ADI-14462 (antibody, V domains shown)
VH: QVQLVQSGGGVVQPGGSLRLSCAAYGLTFRAYGMHWVRQAPGKGLEWVAVSWYDGTNEVYADSVKGRFRISRDDSRSTLYLQMNSLRGEDTAVYYCATERMWEENSSSFGWWGRGTLVTVSS
VL: QAVLTQPASVSGSPGQSITISCTGSSSDVGGSNFVSWYQQHPGKAPKLMVYDVNHRPSGISNRFSGSKSGNTASLTISGLQAEDEADYYCTSYTSRSSYVFGSGTKVTVL
B2: ADI-14465 (antibody, V domains shown)
VH: QVQLLESGAGLLKPSETLSLTCSLSGGSFRDFYWAWIRQAPGRGLEWIGDINDGGNTNHSPSLKSRAILSIDASKRQFSLRLTSVTAADTAVYYCARQRLEHTASGYYMDVWGNGTTVTVSS
VL: QSVLTQPPSVSVDPGETATITCGGANIGSKNVYWYQQRPGQAPVLVVYDDIDRPAGIPDRFTDSSSGNTVTLTIYSVEAVDEADYFCQVWDNSSDQPVFGGGTKLTVL
B3: ADI-14478 (antibody, V domains shown)
VH: EVQLVESGGGLVKPGGSLRLSCAASGFTFSDYYMSWIRQAPGKGLEWVSYISISSSYTDYADSVKGRFTISRDNAKNSLYLQMNSLRAEDTAVYYCARDQRDQAVAGRWFDPWGQGTLVTVSS
VL: QSVVTQPPSVSGAPGQRVTISCTGSSSNIGAGFDVHWYQQVPGTAPKLLIYANTNRPSGVPDRFSGSKSGTSASLAITGLKAEDEADYYCQSYDNSLSGSAVFGGGTKVTVL
B4: ADI-14467 (antibody, V domains shown)
VH: EVQLLESGSEVKKPGTSVKVSCETSGYIFTNYAISWVRQAPGQGLEWLGWISGYNGQTYYAQKVQGRLTLTTDTSTMTAYMDLTSLRSDDTAIYYCVRDVPVISGASTMDYWGQGTLVTVSS
VL: DIVMTQSPLSLPVTHGQPASISCRSSQSLVYSDGNTYLSWFQLRPGQSPRRLIYKVSNRDSGVPDRFSGSGSGTDFTLKISRVEAEDVGVYYCMQATQWPRTFGQGTKVEIK
B5: ADI-14463 (antibody, V domains shown)
VH: QVQLVQSGTEVKKPGASVKVSCKASGYIFDHFAITWVRQAPGQGPEWMGWISAYNGRTEDSGKFPGRLTLTTDPATRTAFLELRGLTPDDTAVYYCARDVPVMGAAFLDYWGQGTLVTVSS
VL: EIVLTQSPLSLPVTVGQPASISCRSGQSLEFSDGNTYLTWFHQRPGQSPRRLIYRGSYRDSGVPDRFRGSGSGTTFTLTISRVEAEDVGIYFCMQGTHWPPTFGQGTKVDIK
B6: ADI-14474 (antibody, V domains shown)
VH: QVQLVQSGPEVKKPGASVTISCQASGYIFNHYSITWVRQAPGQGTEWMGWISAYHGKTEYSGKFHGRVTLTTDTGTRTAFLELRDLTSDDTAIYYCARDVPVMGAAFLDYWGQGTLVTVSS
VL: B5 VL with V15L, H42Q, Y54F, D65E, R68S, T75S, V109L, D110E
B7: ADI-14479 (antibody, V domains shown)
VH: QVQLVQSGSEVKQPGASVKVSCKASGYTFSAYHLHWVRQAPGQGLQWLGRINPNSGATSVAHNFQGRVTLTTDTSISTAYMELSSLTSDDSAVYYCARTMWRWLVEGGFENWGQGTLVTVSS
VL: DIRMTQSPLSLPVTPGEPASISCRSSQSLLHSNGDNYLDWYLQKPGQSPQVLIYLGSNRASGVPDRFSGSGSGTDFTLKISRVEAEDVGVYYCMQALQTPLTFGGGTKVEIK
B8: ADI-14441 (antibody, V domains shown)
VH: QVQLVQSGAEVKKPGSSVKISCKASGGTFNSQAIHWVRQAPGQDLEWMGNIIPGFGSPNSAQNFQGRVTFIADDSTGAAYMDLSSLKSEDTAVYYCATAGWFGESVHLDSWGQGTLVTVSS
VL: not shown

Target: RSV F protein of recombinant mKate-RSV, subtype A (strain A2) (Respiratory syncytial virus subtype A …, UniProt P03420 26-574)
Experiment: cell-based or functional assay

| Binder | Neut IC50 subtype A |
| --- | --- |
| B1 | 2.71 µg/mL |
| B2 | 0.431 µg/mL |
| B3 | 0.163 µg/mL |
| B4 | 0.06 µg/mL |
| B5 | 0.009 µg/mL |
| B6 | 0.019 µg/mL |
| B7 | 4.09 µg/mL |
| B8 | > 10 µg/mL |

Target: RSV F protein of recombinant mKate-RSV, subtype B (18537) (Respiratory syncytial virus subtype B …, UniProt P13843 26-574)
Experiment: cell-based or functional assay

| Binder | Neut IC50 subtype B |
| --- | --- |
| B1 | 2.63 µg/mL |
| B2 | 0.124 µg/mL |
| B3 | 0.057 µg/mL |
| B4 | 0.065 µg/mL |
| B5 | 0.036 µg/mL |
| B6 | 0.016 µg/mL |
| B7 | 22.7 µg/mL |
| B8 | 3.92 µg/mL |
